B1: Glucocorticoid receptor DNA binding domain (GR DBD, residues 417-506), 15N-labelled (domain or fragment, UniProt P04150 417-506, looked up)
chain: PPKLCLVCSDEASGCHYGVLTCGSCKVFFKRAVEGQHNYLCAGRNDCIIDKIRRKNCPACRYRKCLQAGMNLEARKTKKKIKGIQQATTG
modifications: 15N-labelled
B2: VCAM1 TRE (FP) (dsDNA)
DNA 1: TTCCGGCTGACTCATCAAGCG
DNA 2: CGCTTGATGAGTCAGCCGGAA
B3: IL1a TRE (FP) (dsDNA)
DNA 1: GAAGAAGACTGACTCTCAGGCTTAAGC
DNA 2: GCTTAAGCCTGAGAGTCAGTCTTCTTC
B4: MMP13 TRE (FP) (dsDNA)
DNA 1: ATAAGTGATGACTCACCATTGCA
DNA 2: TGCAATGGTGAGTCATCACTTAT

Assays:
NMR titration = target: the molecule itself; assay: NMR titration
GR DBD = GR DBD (UniProt P04150 417-506); assay: fluorescence polarization

| Binder | binding result (NMR titration) | binding result (GR DBD) |
| --- | --- | --- |
| B1 | binds |  |
| B2 |  | binds |
| B3 |  | binds |
| B4 |  | binds |

— paper PMC5737878 (Nucleic Acids Research, 2017)
